B1: Chitin biosynthesis protein CHS5 (Saccharomyces cerevisiae), Q12114 (parent)
chain: MSSVDVLLTVGKLDASLALLTTQDHHVIEFPTVLLPENVKAGSIIKMQVSQNLEEEKKQRNHFKSIQAKILEKYGTHKPESPVLKIVNVTQTSCVLAWDPLKLGSAKLKSLILYRKGIRSMVIPNPFKVTTTKISGLSVDTPYEFQLKLITTSGTLWSEKVILRTHKMTDMSGITVCLGPLDPLKEISDLQISQCLSHIGARPLQRHVAIDTTHFVCNDLDNEESNEELIRAKHNNIPIVRPEWVRACEVEKRIVGVRGFYLDADQSILKNYTFPPVNEEELSYSKENEPVAEVADENKMPEDTTDVEQVASPNDNESNPSEAKEQGEKSGHETAPVSPVEDPLHASTALENETTIETVNPSVRSLKSEPVGTPNIEENKADSSAEAVVEEPNEAVAESSPNEEATGQKSEDTDTHSNEQADNGFVQTEEVAENNITTESAGENNEPADDAAMEFGRPEAEIETPEVNESIEDANEPAEDSNEPVEDSNKPVKDSNKPVEDSNKPVEDSNKPVEDSNKPVEDANEPVEDTSEPVEDAGEPVQETNEFTTDIASPRHQEEDIELEAEPKDATESVAVEPSNEDVKPEEKGSEAEDDINNVSKEAASGESTTHQKTEASASLESSAVTEEQETTEAEVNTDDVLSTKEAKKNTGNSNSNKKKNKKNKKKGKKK
partner: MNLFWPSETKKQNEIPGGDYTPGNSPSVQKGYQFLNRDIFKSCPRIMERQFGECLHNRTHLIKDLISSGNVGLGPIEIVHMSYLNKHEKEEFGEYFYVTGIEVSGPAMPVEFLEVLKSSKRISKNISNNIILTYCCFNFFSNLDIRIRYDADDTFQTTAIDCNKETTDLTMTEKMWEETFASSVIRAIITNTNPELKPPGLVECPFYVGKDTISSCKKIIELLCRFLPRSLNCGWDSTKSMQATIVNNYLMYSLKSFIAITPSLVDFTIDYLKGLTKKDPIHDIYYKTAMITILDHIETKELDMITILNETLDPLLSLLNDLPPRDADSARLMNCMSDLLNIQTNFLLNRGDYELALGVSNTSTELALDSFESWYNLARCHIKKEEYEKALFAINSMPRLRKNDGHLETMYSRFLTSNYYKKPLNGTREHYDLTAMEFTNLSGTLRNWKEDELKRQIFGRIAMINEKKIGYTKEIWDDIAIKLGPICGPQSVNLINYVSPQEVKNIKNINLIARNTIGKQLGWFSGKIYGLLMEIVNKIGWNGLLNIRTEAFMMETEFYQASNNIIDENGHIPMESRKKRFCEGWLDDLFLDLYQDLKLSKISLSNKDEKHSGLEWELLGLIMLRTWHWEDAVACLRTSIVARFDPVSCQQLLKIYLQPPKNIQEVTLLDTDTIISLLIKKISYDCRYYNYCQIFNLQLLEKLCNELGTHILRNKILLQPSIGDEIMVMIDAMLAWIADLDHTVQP
B2: Chitin biosynthesis protein CHS6 (Saccharomyces cerevisiae), P40955 (parent)
chain: B1 partner
partner: B1 chain

Variants of: B1
Conditions: with chs6_yeast CHS6, P40955

Row | Variant | effect of a mutation on the interaction
1 | F63E | disrupting interaction
2 | Q67E | disrupting interaction

Variants of: B2
Conditions: with chs5_yeast CHS5, Q12114

Row | Variant | effect of a mutation on the interaction
3 | I305R | disrupting interaction
